B1: Azoarcus group I ribozyme (parent)
chain: GUGCCUUGCGCCGGGAAACCACGCAAGGGAUGGUGUCAAAUUCGGCGAAACCUAAGCGCCCGCCCGGGCGUAUGGCAACGCCGAGCCAAGCUUCGGCGCCUGCGCCGAUGAAGGUGUAGAGACUAGACGGCACCCACCUAAGGCAAACGCUAUGGUGAAGGCAUAGUCCAGGGAGUGGCGAAAGUCACACAAACCGG

Variants of: B1
Test: reverse-splicing fitness (ratio to wild type); higher = more active; in vitro selection; Mg2+ level not given
How it was run: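 An in vitro group I ribozyme library with randomized positions was T7-transcribed and gel-purified. In triplicate, 10 pmol RNA in EPPS pH 7.5 was reacted with 50 pmoles of a 30-nt RNA substrate for 1 h at 37 °C across several added MgCl2 levels (1–48 mM), then stopped with EDTA. Products were reverse transcribed from a substrate-complementary primer, PCR-amplified and sequenced (HiSeq 4000). Fitness is a variant's read proportion after selection over that before, normalised to wild type.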

In order of rising reverse-splicing fitness:
1. C82U A111C A120C A145C C150G U176G  0.00262
2. C82G A145U C169U U176G  0.00368
3. C82U A111C A120C A145C C169A U176G  0.00387
4. C82G C169G U176G  0.00418
5. C82U A111C A120C A145C C169U U176G  0.00426
6. C82G A145U C169G U176G  0.00439
7. C82G C150U C169U U176G  0.00459
8. C82G A145U C169A U176G  0.00461
9. C82G C169A U176G  0.00463
10. C82G C169U U176G  0.00463
11. C82G A145U C150U C169A U176G  0.00466
12. C82G A145U C150U C169U U176G  0.00492
13. C82G C150U C169G U176G  0.00501
14. C82G C150G C169G U176G  0.00511
15. C82U A111C A120C A145C C150G U176A  0.00512
16. C82U A111C A120C A145C C150U U176G  0.0052
17. C82U A111C A120C A145C C150A U176G  0.00522
18. C82G C150U C169A U176G  0.00526
19. C82G C150A C169G U176G  0.00539
20. C82G A145U C150U C169G U176G  0.00545
21. C82U A111C A120C A145C C150G C169U U176G  0.00551
22. C82U A111C A120C A145C C150G C169G U176G  0.00552
23. C82U A111C A120C A145C C169G U176G  0.00555
24. C82U A111C A120C A145C U176G  0.00562
25. C82U A111C A120C A145C C150U C169G U176G  0.00566
26. C82G C150A C169A U176G  0.00584
27. C82U A111C A120C A145C C150A C169G U176G  0.00588
28. C82G C150G C169U U176G  0.00593
29. C82U A111C A120C A145C C150A C169U U176G  0.00596
30. C82G C150G C169G U176C  0.00598
31. C82U A111C A120C A145C C150G C169A U176G  0.00633
32. C82U A111C A120C A145G C150A C169G U176G  0.00635
33. C82U A111C A120C A145C C150U C169G  0.00644
34. C82U A111C A120C A145C C150A C169G  0.00647
35. C82U A111C A120C A145C C150U C169A U176G  0.00658
36. C82U A111C A120C A145C C150G C169A U176A  0.00661
37. C82U A111C A120C A145C C169A  0.00667
38. C82U A111C A120C A145C C150A C169A U176G  0.00679
39. C82U A111C A120C A145C C150U C169U U176G  0.0068
40. C82U A111C A120C A145C C150G C169G  0.00681
41. C82U A111C A120C A145C C150U C169A U176C  0.00703
42. C82U A111C A120C A145C C150G C169A U176C  0.00704
43. C82G C150A C169U U176G  0.0071
44. C82U A111C A120C A145C C150G U176C  0.00717
45. C82U A111C A120C A145G C150A C169A U176G  0.00718
46. C82U A111C A120C A145C C150A  0.0072
47. C82G C150G C169G U176A  0.00727
48. C82U A111C A120C A145C C150A C169A  0.00737
49. C82U A111C A120C A145C C150U C169A  0.00742
50. C82U A111C A120C A145C C169A U176C  0.00743
51. C82G C150G C169A U176G  0.00752
52. C82U A111C A120C A145C C150A C169A U176C  0.00754
53. C82G A145U C169A U176A  0.00756
54. C82G C150G U176G  0.00797
55. C82U A111C A120C A145C C150G C169G U176C  0.00799
56. C82G C150G C169G  0.00811
57. C82U A111C A120C A145C C150G  0.00813
58. C82U A111C A120C A145C C150U U176A  0.00836
59. C82G A145U C169A  0.00844
60. C82G A145U C169A U176C  0.00844
61. C82G C150G C169U U176A  0.00858
62. C82U A111C A120C A145C C150G C169A  0.00861
63. C82U A111C A120C A145C C150G C169G U176A  0.00861
64. C82U A111C A120C A145C C169G  0.00865
65. C82U A111C A120C A145C C150G C169U  0.00884
66. C82U A111C A120C A145G C150A C169G  0.00891
67. C82U A111C A120C A145C C150A C169U  0.00906
68. C82U A111C A120C A145G C150A C169A  0.00917
69. C82G C150G C169A  0.00919
70. C82G C150A C169G  0.00937
71. C82G A145U C169G U176A  0.00948
72. C82G C150A C169A  0.00956
73. C82G C169A  0.00968
74. C82G C150G C169U  0.00971
75. C82U A111C A120C A145C U176A  0.00981
76. C82U A111C A120C A145C C150A U176A  0.00991
77. C82G C150G C169A U176C  0.00997
78. C82U A111C A120C A145G C150A  0.01
79. C82G C150A C169U  0.0101
80. C82U A111C A120C A145C C150G C169U U176A  0.0102
81. C82U A111C A120C A145C C150U U176C  0.0102
82. C82G A145U C150U C169G  0.0103
83. C82G A145U C169G  0.0104
84. C82G C150U C169G  0.0104
85. C82U A111C A120C A145C C150U  0.0104
86. C82U A111C A120C A145C C169U  0.0105
87. C82G C150U C169A  0.0106
88. C82U A111C A120C A145C C150U C169U  0.0108
89. C82G C169G  0.0111
90. C82U A111C A120C A145C C169A U176A  0.0111
91. C82G C150G C169A U176A  0.0112
92. C82U A111C A120C A145C C150A C169A U176A  0.0113
93. C82G A145U C169G U176C  0.0115
94. C82G A145U C169U U176A  0.0116
95. C82U A111C A120C A145C C150A U176C  0.0116
96. C82G A145U C150U C169G U176A  0.0117
97. C82U A111C A120C A145C C150A C169U U176C  0.0117
98. C82U A111C A120C A145C C150G C169U U176C  0.0117
99. C82G A145U C150U C169U U176A  0.0118
100. C82U A111C A120C A145C C150U C169G U176C  0.0118
101. C82U A111C A120C A145C C150U C169A U176A  0.012
102. C82G A145U C150U C169U U176C  0.0121
103. C82U A111C A120C A145C C150U C169U U176C  0.0122
104. C82G A145U C150U C169U  0.0123
105. C82G A145U C150U C169G U176C  0.0131
106. C82G C150G C169U U176C  0.0132
107. C82G C150U C169A U176C  0.0132
108. C82G C169U U176A  0.0135
109. C82G A145U C169U U176C  0.0136
110. C82G C150A C169U U176C  0.0141
111. C82G C150U C169U U176A  0.0142
112. C82G C150U C169U  0.0143
113. C82U A111C A120C A145C C150U C169U U176A  0.0145
114. C82G C169A U176A  0.0146
115. C82G A145U C169U  0.0147
116. C82U A111C A120C A145C C169U U176C  0.0147
117. C82U A111C A120C A145C C169G U176C  0.015
118. C82U A111C A120C A145G C150A C169G U176A  0.015
119. C82U A111C A120C A145C C150A C169G U176C  0.0151
120. C82G C150A C169U U176A  0.0154
121. C82G C150U C169G U176A  0.0154
122. C82G C169G U176A  0.0155
123. C82U A111C A120C A145C U176C  0.0155
124. C82U A111C A120C A145C C150A C169U U176A  0.0156
125. C82G C150A C169A U176C  0.0158
126. C82G C150U C169U U176C  0.0159
127. C82U A111C A120C A145C C169U U176A  0.0162
128. C82U A111C A120C A145G C150A C169A U176A  0.0163
129. C82G C169A U176C  0.0165
130. C82G C169U U176C  0.0165
131. C82G C169U  0.017
132. C82G C150U C169A U176A  0.0176
133. C82G C150A C169G U176A  0.0179
134. C82G C150A U176G  0.0188
135. C82U A111C A120C A145C C150U C169G U176A  0.0188
136. C82U A111C A120C A145C C169G U176A  0.0195
137. C82U A111C A120C A145G C150A C169A U176C  0.0198
138. C82G C150U C169G U176C  0.0199
139. C82G C150A C169A U176A  0.0213
140. C82G C150A C169G U176C  0.0214
141. C82U A111C A120C A145C  0.0222
142. C82G C169G U176C  0.0235
143. C82U A111C A120C A145G C150A C169G U176C  0.0245
144. C82U A111C A120C A145C C150A C169G U176A  0.0253
145. C82G C150G U176A  0.0255
146. C82U A111C A120C A145G  0.0265
147. C82U A111C A120C  0.0271
148. C82G C150G U176C  0.0287
149. C82G C150G  0.0318
150. C82G C150A  0.0416
151. C82G C150A U176A  0.0422
152. C82G C150A U176C  0.0447
153. C82G C150U U176G  0.0728
154. C82G A145U C150U U176G  0.0935
155. C82G U176G  0.14
156. C82G A145U U176G  0.175
157. C82G C150U U176A  0.181
158. C82G C150U U176C  0.206
159. C82G A145U C150U U176C  0.234
160. C82G A145U C150U U176A  0.236
161. C82U A111C  0.251
162. C82G C150U  0.252
163. C82G U176C  0.352
164. C82G U176A  0.364
165. C82G A145U U176A  0.395
166. C82G A145U U176C  0.405
167. C82U  0.643

— the RNAGym collection of RNA variant scans (doi:10.1093/molbev/msab373)
